# Values quoted from earlier work in PMC2880639.
# Target: His62 (UniProt position 62, VESEAHPGSVQ)
# Assay: kinetics
# Conditions: dissociated species undergoing association
substance,measurement,value
R67 dihydrofolate reductase (type II DHFR) (Escherichia coli (plasmid R67)),pKa,6.6
